Results on three molecules are retold here after patent publication US20240415974A1.

Substitutions are numbered along the chain they refer to. Names may count otherwise.

Experiment [1] concerns the target mannose 6-phosphate receptor (M6PR) on K-562 cells. In words: cell-based or functional assay.
The target is the same in experiment [2]. As to the kind of experiment: flow cytometry on K-562 cells expressing M6PR, detection with HSA-biotin and streptavidin-phycoerythrin.
Experiment [3] shares this target. In words: flow cytometry on K-562 cells expressing M6PR; reference T028100075-bis-M6P(1x).

B1: T028100069-bis-M6P(3x) (bispecific antibody)
chain: DVQLVESGGGVVQPGGSLRLSCAASGFTFRSFGMSWVRQAPGKGPEWVSSISGSGSDTLYADSVKGRFTISRDNSKNTLYLQMNSLRPEDTALYYCTIGGSLSRSSQGTLVTVSSGGGGSGGGGSGGGGSEVQLVESGGGLVQAGGSLSISCAASGGSLSNYVLGWFRQAPGCEREFVAAINWRGDITIGPPNVEGRFTISRDNAKNTGYLQMNSLAPDDTAVYYCGAGTPLNPGAYIYCWSYDYWGCGTLVTVSS
modifications: bisM6P-PEG4-maleimide conjugated to the thiols of the three engineered Cys of the ISVD-based building block (Kabat positions 43, 100f and 105 of SEQ ID NO.: 80); DOL by mass spec 2.90
In experiment [1], B1 registered an internalization potency on K-562 cells, EC50 [M] (HSA-pHAb, flow cytometry) of 3.86e-09 M. In experiment [2], this molecule yielded an EC50 of 0.143 nM. Moreover, in experiment [3], the increase in specific cell binding against the molecule with a single bisM6P (DOL 1) (orders of magnitude) was more than 2.

B2: T028100070-bis-M6P(3x) (bispecific antibody)
chain: B1 chain with K206C, G235C, C240D, C248R
modifications: bisM6P-PEG4-maleimide conjugated to the thiols of the three engineered Cys of the ISVD-based building block (Kabat positions 43, 75 and 100a of SEQ ID NO.: 81); DOL by mass spec 2.84
In experiment [1], B2 came in with an internalization potency on K-562 cells, EC50 [M] (HSA-pHAb, flow cytometry) of 2.88e-09 M. In addition, the EC50 in experiment [2] came out at 0.154 nM. The molecule further had an increase in specific cell binding against the molecule with a single bisM6P (DOL 1) (orders of magnitude) in experiment [3] of more than 2.

B3: T028100075-bis-M6P(1x) (bispecific antibody)
chain: DVQLVESGGGVVQPGGSLRLSCAASGFTFRSFGMSWVRQAPGKGPEWVSSISGSGSDTLYADSVKGRFTISRDNSKNTLYLQMNSLRPEDTALYYCTIGGSLSRSSQGTLVTVSSGGGGSGGGGSGGGGSEVQLVESGGGLVQAGGSLSISCAASGGSLSNYVLGWFRQAPGKEREFVAAINWRGDITIGPPNVEGRFTISRDNAKNTGYLQMNSLAPDDTAVYYCGAGTPLNPGAYIYDWSYDYWGRGTLVTVSSGGC
modifications: bisM6P-PEG4-maleimide conjugated to the thiol of the C-terminal Cys (-GGC) of the building block (SEQ ID NO.: 175); DOL by mass spec 1.00
Turning to B3, in experiment [1], the decrease in internalization potency on K-562 cells against the 3x bis-M6P conjugates came to 20 fold and the internalization potency on K-562 cells, EC50 [M] (HSA-pHAb, flow cytometry) worked out at 5.64e-08 M.
